# Laboratory results taken from patent US20140087995A1 (published 2014).
# Numbered stars: 1 amine (or outer) side, 2 acyl side, 3 side chain; on linkers, the order of the positions; unused ones are H or OH. Bridge positions count the residues as written; N and C are the ends. Side chains are listed from the residue outwards. Ends that are not written are not given here. * marks the point of attachment. C20 diacid = O=C(O)CCCCCCCCCCCCCCCCCCC(=O)*; γGlu = O=C(O)[C@H](CCC(=O)[*:2])N[*:1]; AEEA = NCCOCCOCC(=O)O
# T1: human amylin receptor (human, UniProt P30988 25-474; O60896 24-148, limits assumed)
# T1 construct: whole, on cells; Calcitonin receptor plus RAMP-3 gives the amylin 3(a) receptor; membranes of Amylin 3(a)/CRE-luc cells were used; also called hAmylin-R; hAmylinR
# T1 sequence (looked up) 1: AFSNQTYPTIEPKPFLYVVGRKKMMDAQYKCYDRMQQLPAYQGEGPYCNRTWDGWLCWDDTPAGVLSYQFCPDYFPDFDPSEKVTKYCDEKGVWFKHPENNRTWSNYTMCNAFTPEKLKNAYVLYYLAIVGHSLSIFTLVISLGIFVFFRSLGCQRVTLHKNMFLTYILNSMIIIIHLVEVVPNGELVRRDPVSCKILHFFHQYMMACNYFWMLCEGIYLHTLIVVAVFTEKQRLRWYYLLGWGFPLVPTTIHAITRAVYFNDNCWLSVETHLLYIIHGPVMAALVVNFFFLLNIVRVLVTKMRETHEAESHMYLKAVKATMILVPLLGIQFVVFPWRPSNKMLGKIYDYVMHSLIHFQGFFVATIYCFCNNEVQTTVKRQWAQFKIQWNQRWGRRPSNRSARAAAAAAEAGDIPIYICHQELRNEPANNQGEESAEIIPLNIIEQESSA
# T1 sequence (looked up) 2: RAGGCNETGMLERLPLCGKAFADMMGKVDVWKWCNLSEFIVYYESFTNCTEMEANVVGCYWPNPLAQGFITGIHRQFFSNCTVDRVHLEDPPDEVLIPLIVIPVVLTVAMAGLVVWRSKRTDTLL
# B1: N^ε1-[2-[2-[2-[[(4S)-4-carboxy-4-(19-carboxynonadecanoylamino)butanoyl]amino]ethoxy]ethoxy]acetyl]-[Arg17,Pro21,Pro27,Pro29,Pro31]-h-amylin (peptide)
# peptide: K([AEEA-γGlu-C20 diacid])CNTATCATQRLANFLRHSSPNFGAIPSPTPVGSNTY-NH2
# modifications: disulfide 2-7; N-terminus assumed
# SMILES: CC[C@H](C)[C@H](NC(=O)[C@H](C)NC(=O)CNC(=O)[C@H](Cc1ccccc1)NC(=O)[C@H](CC(N)=O)NC(=O)[C@@H]1CCCN1C(=O)[C@H](CO)NC(=O)[C@H](CO)NC(=O)[C@H](Cc1c[nH]cn1)NC(=O)[C@H](CCCNC(=N)N)NC(=O)[C@H](CC(C)C)NC(=O)[C@H](Cc1ccccc1)NC(=O)[C@H](CC(N)=O)NC(=O)[C@H](C)NC(=O)[C@H](CC(C)C)NC(=O)[C@H](CCCNC(=N)N)NC(=O)[C@H](CCC(N)=O)NC(=O)[C@@H](NC(=O)[C@H](C)NC(=O)[C@@H]1CSSC[C@H](NC(=O)[C@@H](N)CCCCNC(=O)COCCOCCNC(=O)CC[C@H](NC(=O)CCCCCCCCCCCCCCCCCCC(=O)O)C(=O)O)C(=O)N[C@@H](CC(N)=O)C(=O)N[C@@H]([C@@H](C)O)C(=O)N[C@@H](C)C(=O)N[C@@H]([C@@H](C)O)C(=O)N1)[C@@H](C)O)C(=O)N1CCC[C@H]1C(=O)N[C@@H](CO)C(=O)N1CCC[C@H]1C(=O)N[C@H](C(=O)N1CCC[C@H]1C(=O)N[C@H](C(=O)NCC(=O)N[C@@H](CO)C(=O)N[C@@H](CC(N)=O)C(=O)N[C@H](C(=O)N[C@@H](Cc1ccc(O)cc1)C(N)=O)[C@@H](C)O)C(C)C)[C@@H](C)O
# notes: also called 17R, 21P, 27P, 29P, 31P
# B2: N^ε1-[2-[2-[2-[[(4S)-4-carboxy-4-(19-carboxynonadecanoylamino)butanoyl]amino]ethoxy]ethoxy]acetyl]-[Gly14,Arg17,Pro21,Pro27,Pro31]-h-amylin (peptide)
# peptide: K([AEEA-γGlu-C20 diacid])CNTATCATQRLAGFLRHSSPNFGAIPSSTPVGSNTY-NH2
# modifications: disulfide 2-7; N-terminus assumed
# SMILES: CC[C@H](C)[C@H](NC(=O)[C@H](C)NC(=O)CNC(=O)[C@H](Cc1ccccc1)NC(=O)[C@H](CC(N)=O)NC(=O)[C@@H]1CCCN1C(=O)[C@H](CO)NC(=O)[C@H](CO)NC(=O)[C@H](Cc1c[nH]cn1)NC(=O)[C@H](CCCNC(=N)N)NC(=O)[C@H](CC(C)C)NC(=O)[C@H](Cc1ccccc1)NC(=O)CNC(=O)[C@H](C)NC(=O)[C@H](CC(C)C)NC(=O)[C@H](CCCNC(=N)N)NC(=O)[C@H](CCC(N)=O)NC(=O)[C@@H](NC(=O)[C@H](C)NC(=O)[C@@H]1CSSC[C@H](NC(=O)[C@@H](N)CCCCNC(=O)COCCOCCNC(=O)CC[C@H](NC(=O)CCCCCCCCCCCCCCCCCCC(=O)O)C(=O)O)C(=O)N[C@@H](CC(N)=O)C(=O)N[C@@H]([C@@H](C)O)C(=O)N[C@@H](C)C(=O)N[C@@H]([C@@H](C)O)C(=O)N1)[C@@H](C)O)C(=O)N1CCC[C@H]1C(=O)N[C@@H](CO)C(=O)N[C@@H](CO)C(=O)N[C@H](C(=O)N1CCC[C@H]1C(=O)N[C@H](C(=O)NCC(=O)N[C@@H](CO)C(=O)N[C@@H](CC(N)=O)C(=O)N[C@H](C(=O)N[C@@H](Cc1ccc(O)cc1)C(N)=O)[C@@H](C)O)C(C)C)[C@@H](C)O
# notes: also called 14G, 17R, 21P, 27P, 31P
# B3: N^ε1-[2-[2-[2-[[(4S)-4-carboxy-4-(19-carboxynonadecanoylamino)butanoyl]amino]ethoxy]ethoxy]acetyl]-[Arg17,Pro21,Pro27,Pro34]-h-amylin (peptide)
# peptide: K([AEEA-γGlu-C20 diacid])CNTATCATQRLANFLRHSSPNFGAIPSSTNVGPNTY-NH2
# modifications: disulfide 2-7; N-terminus assumed
# SMILES: CC[C@H](C)[C@H](NC(=O)[C@H](C)NC(=O)CNC(=O)[C@H](Cc1ccccc1)NC(=O)[C@H](CC(N)=O)NC(=O)[C@@H]1CCCN1C(=O)[C@H](CO)NC(=O)[C@H](CO)NC(=O)[C@H](Cc1c[nH]cn1)NC(=O)[C@H](CCCNC(=N)N)NC(=O)[C@H](CC(C)C)NC(=O)[C@H](Cc1ccccc1)NC(=O)[C@H](CC(N)=O)NC(=O)[C@H](C)NC(=O)[C@H](CC(C)C)NC(=O)[C@H](CCCNC(=N)N)NC(=O)[C@H](CCC(N)=O)NC(=O)[C@@H](NC(=O)[C@H](C)NC(=O)[C@@H]1CSSC[C@H](NC(=O)[C@@H](N)CCCCNC(=O)COCCOCCNC(=O)CC[C@H](NC(=O)CCCCCCCCCCCCCCCCCCC(=O)O)C(=O)O)C(=O)N[C@@H](CC(N)=O)C(=O)N[C@@H]([C@@H](C)O)C(=O)N[C@@H](C)C(=O)N[C@@H]([C@@H](C)O)C(=O)N1)[C@@H](C)O)C(=O)N1CCC[C@H]1C(=O)N[C@@H](CO)C(=O)N[C@@H](CO)C(=O)N[C@H](C(=O)N[C@@H](CC(N)=O)C(=O)N[C@H](C(=O)NCC(=O)N1CCC[C@H]1C(=O)N[C@@H](CC(N)=O)C(=O)N[C@H](C(=O)N[C@@H](Cc1ccc(O)cc1)C(N)=O)[C@@H](C)O)C(C)C)[C@@H](C)O
# notes: also called 17R, 21P, 27P, 34P
# B4: N^ε1-[2-[2-[2-[[(4S)-4-carboxy-4-(19-carboxynonadecanoylamino)butanoyl]amino]ethoxy]ethoxy]acetyl]-[Arg17,Pro21,Pro27,Pro31,His35]-h-amylin (peptide)
# peptide: K([AEEA-γGlu-C20 diacid])CNTATCATQRLANFLRHSSPNFGAIPSSTPVGSHTY-NH2
# modifications: disulfide 2-7; N-terminus assumed
# SMILES: CC[C@H](C)[C@H](NC(=O)[C@H](C)NC(=O)CNC(=O)[C@H](Cc1ccccc1)NC(=O)[C@H](CC(N)=O)NC(=O)[C@@H]1CCCN1C(=O)[C@H](CO)NC(=O)[C@H](CO)NC(=O)[C@H](Cc1c[nH]cn1)NC(=O)[C@H](CCCNC(=N)N)NC(=O)[C@H](CC(C)C)NC(=O)[C@H](Cc1ccccc1)NC(=O)[C@H](CC(N)=O)NC(=O)[C@H](C)NC(=O)[C@H](CC(C)C)NC(=O)[C@H](CCCNC(=N)N)NC(=O)[C@H](CCC(N)=O)NC(=O)[C@@H](NC(=O)[C@H](C)NC(=O)[C@@H]1CSSC[C@H](NC(=O)[C@@H](N)CCCCNC(=O)COCCOCCNC(=O)CC[C@H](NC(=O)CCCCCCCCCCCCCCCCCCC(=O)O)C(=O)O)C(=O)N[C@@H](CC(N)=O)C(=O)N[C@@H]([C@@H](C)O)C(=O)N[C@@H](C)C(=O)N[C@@H]([C@@H](C)O)C(=O)N1)[C@@H](C)O)C(=O)N1CCC[C@H]1C(=O)N[C@@H](CO)C(=O)N[C@@H](CO)C(=O)N[C@H](C(=O)N1CCC[C@H]1C(=O)N[C@H](C(=O)NCC(=O)N[C@@H](CO)C(=O)N[C@@H](Cc1c[nH]cn1)C(=O)N[C@H](C(=O)N[C@@H](Cc1ccc(O)cc1)C(N)=O)[C@@H](C)O)C(C)C)[C@@H](C)O
# notes: also called 17R, 21P, 27P, 31P, 35H
# B5: N^ε1-[2-[2-[2-[[(4S)-4-carboxy-4-(19-carboxynonadecanoylamino)butanoyl]amino]ethoxy]ethoxy]acetyl]-[Arg17,Pro21,Pro27,Pro29,Pro34]-h-amylin (peptide)
# peptide: K([AEEA-γGlu-C20 diacid])CNTATCATQRLANFLRHSSPNFGAIPSPTNVGPNTY-NH2
# modifications: disulfide 2-7; N-terminus assumed
# SMILES: CC[C@H](C)[C@H](NC(=O)[C@H](C)NC(=O)CNC(=O)[C@H](Cc1ccccc1)NC(=O)[C@H](CC(N)=O)NC(=O)[C@@H]1CCCN1C(=O)[C@H](CO)NC(=O)[C@H](CO)NC(=O)[C@H](Cc1c[nH]cn1)NC(=O)[C@H](CCCNC(=N)N)NC(=O)[C@H](CC(C)C)NC(=O)[C@H](Cc1ccccc1)NC(=O)[C@H](CC(N)=O)NC(=O)[C@H](C)NC(=O)[C@H](CC(C)C)NC(=O)[C@H](CCCNC(=N)N)NC(=O)[C@H](CCC(N)=O)NC(=O)[C@@H](NC(=O)[C@H](C)NC(=O)[C@@H]1CSSC[C@H](NC(=O)[C@@H](N)CCCCNC(=O)COCCOCCNC(=O)CC[C@H](NC(=O)CCCCCCCCCCCCCCCCCCC(=O)O)C(=O)O)C(=O)N[C@@H](CC(N)=O)C(=O)N[C@@H]([C@@H](C)O)C(=O)N[C@@H](C)C(=O)N[C@@H]([C@@H](C)O)C(=O)N1)[C@@H](C)O)C(=O)N1CCC[C@H]1C(=O)N[C@@H](CO)C(=O)N1CCC[C@H]1C(=O)N[C@H](C(=O)N[C@@H](CC(N)=O)C(=O)N[C@H](C(=O)NCC(=O)N1CCC[C@H]1C(=O)N[C@@H](CC(N)=O)C(=O)N[C@H](C(=O)N[C@@H](Cc1ccc(O)cc1)C(N)=O)[C@@H](C)O)C(C)C)[C@@H](C)O
# notes: also called 17R, 21P, 27P, 29P, 34P
# B6: N^ε1-[2-[2-[2-[[(4S)-4-carboxy-4-(19-carboxynonadecanoylamino)butanoyl]amino]ethoxy]ethoxy]acetyl]-[Arg17,Pro21,Pro27,Pro34,His35]-h-amylin (peptide)
# peptide: K([AEEA-γGlu-C20 diacid])CNTATCATQRLANFLRHSSPNFGAIPSSTNVGPHTY-NH2
# modifications: disulfide 2-7; N-terminus assumed
# SMILES: CC[C@H](C)[C@H](NC(=O)[C@H](C)NC(=O)CNC(=O)[C@H](Cc1ccccc1)NC(=O)[C@H](CC(N)=O)NC(=O)[C@@H]1CCCN1C(=O)[C@H](CO)NC(=O)[C@H](CO)NC(=O)[C@H](Cc1c[nH]cn1)NC(=O)[C@H](CCCNC(=N)N)NC(=O)[C@H](CC(C)C)NC(=O)[C@H](Cc1ccccc1)NC(=O)[C@H](CC(N)=O)NC(=O)[C@H](C)NC(=O)[C@H](CC(C)C)NC(=O)[C@H](CCCNC(=N)N)NC(=O)[C@H](CCC(N)=O)NC(=O)[C@@H](NC(=O)[C@H](C)NC(=O)[C@@H]1CSSC[C@H](NC(=O)[C@@H](N)CCCCNC(=O)COCCOCCNC(=O)CC[C@H](NC(=O)CCCCCCCCCCCCCCCCCCC(=O)O)C(=O)O)C(=O)N[C@@H](CC(N)=O)C(=O)N[C@@H]([C@@H](C)O)C(=O)N[C@@H](C)C(=O)N[C@@H]([C@@H](C)O)C(=O)N1)[C@@H](C)O)C(=O)N1CCC[C@H]1C(=O)N[C@@H](CO)C(=O)N[C@@H](CO)C(=O)N[C@H](C(=O)N[C@@H](CC(N)=O)C(=O)N[C@H](C(=O)NCC(=O)N1CCC[C@H]1C(=O)N[C@@H](Cc1c[nH]cn1)C(=O)N[C@H](C(=O)N[C@@H](Cc1ccc(O)cc1)C(N)=O)[C@@H](C)O)C(C)C)[C@@H](C)O
# notes: also called 17R, 21P, 27P, 34P, 35H
# Target: T1, human amylin receptor
# Assay: SPA competition binding, displacement of 125I-rat amylin from membranes with human amylin 3(a) receptor (Assay V)
# How it was run: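 One-site competition analysis of SPA counts yielded IC₅₀ as a measure of affinity. Membranes were at 35 ng/μL final; incubation was 120 min at 25° C, pH 7.4.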
row,Binder,IC50 [nM]
1,B1,0.03
2,B2,0.048
3,B3,0.038
4,B4,0.115
5,B5,0.049
6,B6,0.088
